± gives the half width of the 95% confidence interval.
Columns and labels:
[1] = folding stability dG unfold from trypsin proteolysis; higher = more stable
How it was run: (§1)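 Designed mini-proteins with no cysteine and under 80 residues were kept only if AlphaFold2 dimer inter-PAE was above 15. In a PA-tagged cDNA display construct, they were digested with trypsin and chymotrypsin and then sequenced. K50 was inferred by Bayesian fitting of counts, and unfolding free energy was derived per protease or combined against a sequence-predicted unfolded-state K50 and a shared folded-state K50.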

[2] = folding stability dG unfold from chymotrypsin proteolysis; higher = more stable
How it was run: as §1

[3] = folding stability dG unfold (combined trypsin and chymotrypsin); higher = more stable
How it was run: as §1

Sequence | folding stability dG unfold [1] | folding stability dG unfold [2] | folding stability dG unfold [3]
SAGGSAGGSAGEVTVPAVVPPDAVPEVVEAVERLGARAEVEWDPETGLYRVNITFDGEVGSAGGSAGGSAGG [r11_1043_TrMRF] | -0.00326 ± 0.067 kcal/mol | 0.901 ± 0.06 kcal/mol | 0.604 ± 0.07 kcal/mol
SAGGSAGGSAGEVVLSPTDKTLTLTSFDPKTGVTYYTVFYPATGTTSTTSTGNLESLIAASAGGSAGGSAGG [r17_300_JUSTAS] | 1.25 ± 0.024 kcal/mol | 0.531 ± 0.13 kcal/mol | 0.929 ± 0.084 kcal/mol
SAGGSAGGSAGFFRVDIDIMMSPEMLDLMKKNPGLPPGQEIPIMVVIKREPVPYDPNGKLSAGGSAGGSAGG [r17_194_TrROS] | 1.375 ± 0.013 kcal/mol | 2.1 ± 0.043 kcal/mol | 1.8 ± 0.051 kcal/mol
SAGGSAGGSAGFKLPPGQEVVFQVSIKLPDGPTQTLEDLENMPPENIDFLEIEISWVPVDSAGGSAGGSAGG [r11_899_TrROS] | 1.09 ± 0.14 kcal/mol | 1.81 ± 0.12 kcal/mol | 1.57 ± 0.2 kcal/mol
SAGGSAGGSAGFKVPPGWKIVNTYRSPESGYPTAILRDPGDNKPLIFDFDNGKIMPAKDISAGGSAGGSAGG [r11_268_TrROS] | 0.291 ± 0.11 kcal/mol | -0.535 ± 0.69 kcal/mol | -0.178 ± 0.55 kcal/mol
SAGGSAGGSAGFNIRIVNVEITGNKLTIYLPNGWVITIKFNKNGNINMKIEDIKPLPPGASAGGSAGGSAGG [r17_173_TrROS] | 3.02 ± 0.16 kcal/mol | 3.98 ± 0.064 kcal/mol | 3.61 ± 0.14 kcal/mol
SAGGSAGGSAGGAEEIARKLAEETGKKVTIRIRLPNGEVYEIELDEPLEEIEGAEIVEIESAGGSAGGSAGG [r7_998_TrROS_Hall] | 0.639 ± 0.018 kcal/mol | 1.79 ± 0.036 kcal/mol | 1.43 ± 0.061 kcal/mol
SAGGSAGGSAGGAEELAKELAEKLGLEKKKVLIKLPNGKVVEVTIEDLKKLNLKNAEIVPSAGGSAGGSAGG [r7_863_TrROS_Hall] | 0.906 ± 0.052 kcal/mol | 0.492 ± 0.12 kcal/mol | 0.786 ± 0.18 kcal/mol
SAGGSAGGSAGGAIVTTTTTKAPVFAPDGTVVAEITTTTVTVILPETPPSLLPEVLERLASAGGSAGGSAGG [r7_450_JUSTAS] | 0.553 ± 0.06 kcal/mol | 0.801 ± 0.076 kcal/mol | 0.681 ± 0.16 kcal/mol
SAGGSAGGSAGGALLVTPTPDGYIARVKDPNSDSWTVVPLSPEELEELAAAGVPTVEVLPSAGGSAGGSAGG [r7_266_JUSTAS] | -0.336 ± 0.32 kcal/mol | 1.46 ± 0.064 kcal/mol | 1.09 ± 0.16 kcal/mol
SAGGSAGGSAGGASLKVVEREVEYYDPETGETVRVKALVTVDPNSDKEILDPEEKEKLLSSAGGSAGGSAGG [r7_557_JUSTAS] | 1.02 ± 0.034 kcal/mol | 0.795 ± 0.016 kcal/mol | 0.907 ± 0.087 kcal/mol
SAGGSAGGSAGGAVTPETIELPDATITVYTYPEGVVVEVTDPETGQATVISPEEFERLLASAGGSAGGSAGG [r7_372_JUSTAS] | 1.78 ± 0.044 kcal/mol | 1.21 ± 0.034 kcal/mol | 1.5 ± 0.057 kcal/mol
SAGGSAGGSAGGDEEAIKEAAAAAPKDTTTVPVLLPDGKEVTLEVTWHPDGSRTITVRQSAGGSAGGSAGGS [r10_1017_JUSTAS] | -0.0882 ± 0.15 kcal/mol | 1.6 ± 0.098 kcal/mol | 1.15 ± 0.072 kcal/mol
SAGGSAGGSAGGDERVEVFEFDAPGGYRVRLVDFGDLALVAFISPDGRPAVIPVPRELLSAGGSAGGSAGGS [r10_1075_TrMRF] | 0.529 ± 0.041 kcal/mol | 1.87 ± 0.035 kcal/mol | 1.41 ± 0.044 kcal/mol
SAGGSAGGSAGGDESYRKLLEELPLPVTEIVVETVPLPETDEPITVVTPKNPDGKEVTLGSAGGSAGGSAGG [r7_337_JUSTAS] | -0.0426 ± 0.037 kcal/mol | -0.557 ± 0.084 kcal/mol | -0.284 ± 0.14 kcal/mol
SAGGSAGGSAGGDEVLVFETETVELEVEVRTLNEDGEETTEKEKVTLTVTRVVRLPPGLLSAGGSAGGSAGG [r7_926_TrROS_Hall] | 0.827 ± 0.083 kcal/mol | 1.15 ± 0.24 kcal/mol | 0.959 ± 0.44 kcal/mol
SAGGSAGGSAGGDKDDKPPVRTVTVMHMFFDENGWLVKFDITFTANGQIEIDWGPVPLPSAGGSAGGSAGGS [r10_682_TrROS] | 2.96 ± 0.3 kcal/mol | 3.8 ± 0.42 kcal/mol | 3.52 ± 0.5 kcal/mol
SAGGSAGGSAGGDKKDPGQPRQEVEIEIPVYDPNGKPKGPIEITMPAGQSLDEIADEIFNSAGGSAGGSAGG [r7_110_TrROS] | 0.758 ± 0.068 kcal/mol | 1.05 ± 0.049 kcal/mol | 0.937 ± 0.13 kcal/mol

Sequence | folding stability dG unfold [1] | folding stability dG unfold [2] | folding stability dG unfold [3]
SAGGSAGGSAGGDKNKPPKLKVKLKIEFPFTLPDGVKVRLEVEIDLDSDVIEPRAEVIDSSAGGSAGGSAGG [r7_213_TrMRF] | 1.76 ± 0.035 kcal/mol | 2.98 ± 0.086 kcal/mol | 2.64 ± 0.081 kcal/mol
SAGGSAGGSAGGDLVITEVRVEFDPKDGTLRVTARFELPNTGETVEVTLEFEIPYPDGASAGGSAGGSAGGS [r10_296_TrMRF] | 2.99 ± 0.35 kcal/mol | 2.86 ± 0.15 kcal/mol | 2.85 ± 0.32 kcal/mol
SAGGSAGGSAGGDNFEIEPDISWNPDYGYISIDWTVTIGGKEQPFTIMIPVRLPPPPEDDSAGGSAGGSAGG [r7_413_TrROS] | 1.41 ± 0.099 kcal/mol | 0.712 ± 0.15 kcal/mol | 1.14 ± 0.22 kcal/mol
SAGGSAGGSAGGDPKAKPKKYYLIDLNARLVGVEVDPETGELTVTYELEGATLTLRFEGSAGGSAGGSAGGS [r10_962_TrMRF] | 2.24 ± 0.1 kcal/mol | 2.78 ± 0.045 kcal/mol | 2.65 ± 0.14 kcal/mol
SAGGSAGGSAGGDPLPVTFTIPLEDDTTAKAVLSGDLVEVTIPNGKKYVLIPNPAVLGSSAGGSAGGSAGGS [r10_1176_TrMRF] | -0.144 ± 0.11 kcal/mol | -0.232 ± 0.22 kcal/mol | -0.216 ± 0.15 kcal/mol
SAGGSAGGSAGGDPNDKPKEERRIKIKVRPTNVQRDPDNGMLWYSWRLEGLSITIMIPASAGGSAGGSAGGS [r10_962_TrROS] | 1.86 ± 0.08 kcal/mol | 3.43 ± 0.035 kcal/mol | 2.85 ± 0.1 kcal/mol
SAGGSAGGSAGGEDLKINIKISEITFSPDGWITMSMRGGNGRWFQHTIKVKIKLPPGDPSAGGSAGGSAGGS [r10_281_TrROS] | 2.77 ± 0.14 kcal/mol | 3.15 ± 0.038 kcal/mol | 3 ± 0.12 kcal/mol
SAGGSAGGSAGGEEEYVTLTIKVYDPKTREPVKEITIVLPKKNMTPEQLRELLKELGIEVSAGGSAGGSAGG [r7_903_TrROS_Hall] | 2.87 ± 0.12 kcal/mol | 3.01 ± 0.083 kcal/mol | 2.98 ± 0.23 kcal/mol
SAGGSAGGSAGGEEKEVYLVRFRRPDGSEVTVVAPWEDLEEIVKSLPEAVEVEVEKAPLSAGGSAGGSAGGS [r10_437_TrMRF] | 1.58 ± 0.042 kcal/mol | 2.22 ± 0.089 kcal/mol | 1.98 ± 0.17 kcal/mol
SAGGSAGGSAGGEIKVEVVPVDGKLRVKVTLEDGEKIEIEVPENTTLDELKKLAEELAKKSAGGSAGGSAGG [r7_265_TrROS_Hall] | 1.55 ± 0.083 kcal/mol | 2.12 ± 0.077 kcal/mol | 1.94 ± 0.11 kcal/mol
SAGGSAGGSAGGEKIIKVHPDNIEAFLKEAKEKGYKVILFPNGEAIVNGKKVKIISDPKSAGGSAGGSAGGS [r10_930_TrMRF] | 1.36 ± 0.12 kcal/mol | 1.73 ± 0.074 kcal/mol | 1.74 ± 0.18 kcal/mol
SAGGSAGGSAGGEKKWIFMVSFRHPDGKERKFTFPWNDLEEIKENLPGIDDVEIEWMPMSAGGSAGGSAGGS [r10_437_TrROS] | -0.025 ± 0.2 kcal/mol | 0.961 ± 0.28 kcal/mol | 0.773 ± 0.19 kcal/mol
SAGGSAGGSAGGEKTIVISEEEAEKLAKELEKKGLTVERKPDGTLKVNGKEIRIIVVEPSAGGSAGGSAGGS [r10_930_TrROS_Hall] | 0.758 ± 0.077 kcal/mol | 0.858 ± 0.07 kcal/mol | 0.814 ± 0.17 kcal/mol
SAGGSAGGSAGGELKLLRIEVTGRAPYPTELLKTVEIVLPNEDVTEEQIRELLKELGIELSAGGSAGGSAGG [r7_903_TrMRF] | 0.226 ± 0.046 kcal/mol | -0.505 ± 0.26 kcal/mol | 0.0188 ± 0.19 kcal/mol
SAGGSAGGSAGGELKLLSVEEGPNETYTVSSSDGKLTVYTKPPDGSWKSTSLPLEPELLSAGGSAGGSAGGS [r10_99_JUSTAS] | -0.277 ± 0.057 kcal/mol | 0.317 ± 0.14 kcal/mol | 0.194 ± 0.1 kcal/mol
SAGGSAGGSAGGENNWMIFIEIKIEWEIKPTPDGKWKWEPEIEIKSIRIMPPNSPAAKDLSAGGSAGGSAGG [r7_889_TrROS] | 2.95 ± 0.18 kcal/mol | 2.51 ± 0.1 kcal/mol | 2.6 ± 0.24 kcal/mol
SAGGSAGGSAGGEPEVKVELRVELDEDGRLRVTLKVEFEDGTVERELELEAPVVFFPPEESAGGSAGGSAGG [r7_992_TrROS_Hall] | 2.73 ± 0.18 kcal/mol | 2.07 ± 0.093 kcal/mol | 2.49 ± 0.16 kcal/mol
SAGGSAGGSAGGEPIYIRINNYYIVINLDDGNIRVYPPMKGKKKKVPANDIKPIDPGDISAGGSAGGSAGGS [r10_709_TrROS] | 1.18 ± 0.025 kcal/mol | 0.813 ± 0.071 kcal/mol | 1.07 ± 0.076 kcal/mol

From the supplement of paper PMC12764529
